{"source": "paper PMC8911618", "about": "“Application of β-Glucosidase in a Biphasic System for the Efficient Conversion of Polydatin to Resveratrol” (Molecules, 2022)", "tested_on": "T1, O=[N+]([O-])c1ccc(O[C@@H]2O[C@H](CO)[C@@H](O)[C@H](O)[C@H]2O)cc1", "T1 construct": "signal peptide removed, starts at residue 29 with added Met; C-terminal His6 (reverse primer), pQE30, E. coli JM109, Ni-NTA", "assay": "purified protein", "type": "biochemical, Sphingomonas sp. ATCC 31555", "details": "McIlvaine buffer, pH 5.5, 45 °C, 0.1–20 mM pNPG", "data": [{"substance": "SpBGL1 (Sphingomonas sp. ATCC 31555)", "values": [{"measurement": "Km", "result": "13.09 ± 3.43", "unit": "mM"}]}]}
